Results on one substance are retold here after patent US20220025069A1.

In assay [1] the target is human 4-1BB (CD137), cell-surface-expressed on Jurkat-hu4-1BB-NFkB-luc2 reporter cell line (human) (UniProt Q07011). In words: cell-based or functional assay. The arrangement: AUC of activation curve, NFκB-luciferase in Jurkat-hu4-1BB-NFκB-luc2, crosslinking by WM-266-4 cells: unit not given beside the values.
For assay [2] the target is unchanged. In words: flow cytometry, Jurkat-hu4-1BB-NFkB-luc2 cells, gMFI curve. Background: In flow cytometry, cells or beads pass a laser one at a time.
Assay [3] deals with human HER2, cell-surface-expressed on KPL4 and NCI-N87 cells (human) (UniProt P04626). In words: flow cytometry, NCI-N87 cells, gMFI curve.
Assay [4] concerns the target human 4-1BB (CD137), cell-surface-expressed on Jurkat-hu4-1BB-NFkB-luc2 reporter cell line (human) (UniProt Q07011). Nature of the assay: flow cytometry, Jurkat-hu4-1BB-NFkB-luc2 cells, gMFI curve. The source holds these as a separate data set.
In assay [5] the target is human HER2, cell-surface-expressed on KPL4 and NCI-N87 cells (human) (UniProt P04626). In words: flow cytometry, KPL4 cells, gMFI curve.
Assay [6] addresses human Fibroblast Activation Protein (FAP), cell-surface-expressed on NIH/3T3-huFAP clone 19 cells (human) (UniProt Q12884). In words: flow cytometry, NIH/3T3-huFAP clone 19 cells, gMFI curve.
The target in assay [7] is human 4-1BB (CD137), cell-surface-expressed on Jurkat-hu4-1BB-NFkB-luc2 reporter cell line (human) (UniProt Q07011). Nature of the assay: cell-based or functional assay. Also on record: unit not given beside the values.

Like-named read-outs stand apart in the source and are kept apart here.

Turning to DP47 huIgG1 PG LALA (antibody), the AUC of activation curve, NFκB-luciferase in Jurkat-hu4-1BB-NFκB-luc2, crosslinking by NIH/3T3-huFAP clone 19 cells in assay [1] is 195. The substance also yielded an AUC of activation curve, NFκB-luciferase in Jurkat-hu4-1BB-NFκB-luc2, crosslinking by WM-266-4 cells in assay [1] of 191. In addition, the Area under the curve (AUC) of binding curve in assay [2] turned out to be 87; in assay [3], 1130; in assay [4], 101; in assay [5], 177; in assay [6] it was 362. Further, the AUC of activation curve, NFκB-luciferase in Jurkat-hu4-1BB-NFκB-luc2, crosslinking by KPL4 cells in assay [7] was 253. Moreover, in assay [7], the AUC of activation curve, NFκB-luciferase in Jurkat-hu4-1BB-NFκB-luc2, crosslinking by NCI-N87 cells is 127. The substance also gave an AUC of activation curve, NFκB-luciferase in Jurkat-hu4-1BB-NFκB-luc2, crosslinking by SK-Br3 cells in assay [7] of 129.
